Measured values published in the RNAGym collection of RNA variant scans (doi:10.1093/nar/gkz1192).

B1: CPEB3 Ribozyme (parent)
chain: UAACAGGGGGCCACAGCAGAAGCGUUCACGUCGCAGCCCCUGUCAGAUUCUGGUGAAUCUGCGAAUUCUGCUGUAUAUCUC

Variants of: B1
Assay: self-cleavage, relative activity (ratio to wild type); higher = more cleavage; in vitro, sequencing
Method in brief: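 Relative activity was defined as the cleaved/total read fraction for a variant divided by the same fraction for the unmutated ribozyme. CPEB3 self-cleaving ribozyme libraries were made by rounds of error-prone PCR, barcoded, and transcribed in vitro with T7 RNA polymerase for 5 hours at 37°C, and cleavage ran through transcription plus a 15 min DNase I step before EDTA. Illumina sequencing of template-switched reverse transcripts gave the reads, and DNA sequencing mapped the barcodes. Averages come from three batches, using variants with at least 5 reads.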

Variant	self-cleavage
GAACAGGGGGCCACAGCAGAAGCGUUCACGUCGCAGCCCCUGUCAGAUUCUGGUGAAUCUGCUAAUUCUGCUGUAUAUCUC	0.81
CAACAGGGGGCCACAGCAGAAGCGUUCACGUCGCAGCCCCUGUCAGAUUCUGGUGAACCUGCGAAUUCUGCUGUAUAUCUC	0.63
CAACAGGGGGCCACAGCAGAAGCGUUCACGUCGCAGCCCCUGUCAGAUUCUGGUGAAACUGCGAAUUCUGCUGUAUAUCUC	0.46
GGACAGGGGGCCACAGCAGAAGCGUUCACGUCGCAGCCCCUGUCAGAUUCUGGUGAAUCUGCGAAUUCUGCUGUAUAUCUC	0.95
GAACAGGGGGCCACAGCAGAAGUGUUCACGUCGCAGCCCCUGUCAGAUUCUGGUGAAUCUGCGAAUUCUGCUGUAUAUCUC	0.49
CAACAGGGGGCCACAGCAGAAGCGUUCACGUCGCAGCCCCUGUCAGAUUCUGGUGAAUCAGCGAAUUCUGCUGUAUAUCUC	0.42
CAACAGGGGGCCACAGCAGAAGCGUUCACGUCGCAGCCCCUGUCAGAUUCUGGUGAAUCCGCGAAUUCUGCUGUAUAUCUC	0.39
GAACAGGGGGCCACAGCAGAAGCGUUAACGUCGCAGCCCCUGUCAGAUUCUGGUGAAUCUGCGAAUUCUGCUGUAUAUCUC	0.43
GAACAGGGGGCCACAGCAGAAGCGUUCGCGUCGCAGCCCCUGUCAGAUUCUGGUGAAUCUGCGAAUUCUGCUGUAUAUCUC	0.55
GAACAGGGGGCCACAGCAGAAGCGUUCCCGUCGCAGCCCCUGUCAGAUUCUGGUGAAUCUGCGAAUUCUGCUGUAUAUCUC	0.6
GAACAGGGGGCCACAGCAGAAGCGUUCACGUCGCAGCCCCUGUCAGAUUCUGGUGGAUCUGCGAAUUCUGCUGUAUAUCUC	0.92
CAACAGGGGGCCACAGCAGAAGCGUUCACGUCGCAGCCCCUGUCAGAUUCUGGUGAAUCUGCGAAUCCUGCUGUAUAUCUC	0.26
CAACAGGGGGCCACAGCAGAAGCGUUCACGUCGCAGCCCCUGUCAGAUUCUGGUGAAUCUGCGAAUACUGCUGUAUAUCUC	0.4
CAACAGGGGGCCACAGCAGAAGCGUUCACGUCGCAGCCCCUGUCAGAUUCUGGUGAAUCUGCGAAUGCUGCUGUAUAUCUC	0.22
GAACAGGGGGCCACAGCGGAAGCGUUCACGUCGCAGCCCCUGUCAGAUUCUGGUGAAUCUGCGAAUUCUGCUGUAUAUCUC	0.61
GAACAGGGGGCCACAGCAGCAGCGUUCACGUCGCAGCCCCUGUCAGAUUCUGGUGAAUCUGCGAAUUCUGCUGUAUAUCUC	0.55
UCACAGGGGGCCACGGCAGAAGCGUUCACGUCGCAGCCCCUGUCAGAUUCUGGUGAAUCUGCGAAUUCUGCUGUAUAUCUC	0.69
UCACAGGGGGCCACUGCAGAAGCGUUCACGUCGCAGCCCCUGUCAGAUUCUGGUGAAUCUGCGAAUUCUGCUGUAUAUCUC	0.5
GAACAGGGGGCCACAGCAGAAGCGUCCACGUCGCAGCCCCUGUCAGAUUCUGGUGAAUCUGCGAAUUCUGCUGUAUAUCUC	0.4
GAACAGGCGGCCACAGCAGAAGCGUUCACGUCGCAGCCCCUGUCAGAUUCUGGUGAAUCUGCGAAUUCUGCUGUAUAUCUC	0.59
GAACAGGGGGCCACAGCAGAAGCGUUCACGUCGCAGCCCCUGUCAGAUUCUGGUGAAUCUGCGCAUUCUGCUGUAUAUCUC	0.26
CAACAGGGGGCCACAGCAGAAGCGUUCACGUCGCAGCCCCUGUCAGAUUCUGGUGAAUCUGCGAAUUCUGCAGUAUAUCUC	0.66
CAACAGGGGGCCACAGCAGAAGCGUUCACGUCGCAGCCCCUGUCAGAUUCUGGUGAAUCUGCGAAUUCUGCGGUAUAUCUC	1

Variant	self-cleavage
CAACAGGGGGCCACAGCAGAAGCGUUCACGUCGCAGCCCCUGUCAGAUUCUGGUGAAUCUGCGAAUUCUGCCGUAUAUCUC	0.82
GAACAGGGGGCCACAGCAGAAGCGUUCACGUCGCAGCCCCUGUCAGACUCUGGUGAAUCUGCGAAUUCUGCUGUAUAUCUC	0.79
UCACAGGGGGCCACAGCAGAAGCGUUCACGUCGCAGCCCCUGUCAGAUUCUGGUGAAUCUGCGAAUUCUGCUGUAUGUCUC	1.01
CAACAGGGGGCCACAGCAGAAGCGUUCACGUCGCAGCCCCUGUCAGAUUCUGGUGAAUCUGCGAAUUCUGCUGUAUAUCCC	1
CAACAGGGGGCCACAGCAGAAGCGUUCACGUCGCAGCCCCUGUCAGAUUCUGGUGAAUCUGCGAAUUCUGCUGUAUAUCAC	0.82
GAACAGGGGGCCACAGCAGAAGCGUUCACGUCGCAGCCCCUGUCAGAUUCUGGUGAAUCUGCGAAUUCUGCUGCAUAUCUC	1.13
GAACAGGGGGCCACAGCAGAAGCGUUCACGUCGCAGCCCCUGUCAGAUUCUGGUGAAUCUGCGAAUUCUGCAGUAUAUCUC	0.71
GAACAGGGGGCCACAGCAGAAGCGUUCACGUCGCAGCCCCUGUCAGAUUCUGGUGAAUCUGCGAAUUCUGCCGUAUAUCUC	1
UCACAGGGGGCCACAGCAGAAGCGUUCACGUCGCAGCCCCUGUCAGAUUCUGGUGAAUCUGCGAGUUCUGCUGUAUAUCUC	0.46
CAACAGGGGGCCACAGCAGAAGCGUUCACGUCGCAGCCCCUGUCAGAUUCUGGUGAAUCUGCGAAUUCUGCUGUAUACCUC	0.8
CAACAGGGGGCCACAGCAGAAGCGUUCACGUCGCAGCCCCUGUCAGAUUCUGGUGAAUCUGCGAAUUCUGCUGUAUAGCUC	0.94
CAACAGGGGGCCACAGCAGAAGCGUUCACGUCGCAGCCCCUGUCAGAUUCUGGUGAAUCUGCGAAUUCUGCUGUAUAACUC	1.11
GAACAGGGGGCCACAGCAGAAGCGUUCACGUCGCAGCACCUGUCAGAUUCUGGUGAAUCUGCGAAUUCUGCUGUAUAUCUC	0.48
GAACUGGGGGCCACAGCAGAAGCGUUCACGUCGCAGCCCCUGUCAGAUUCUGGUGAAUCUGCGAAUUCUGCUGUAUAUCUC	0.98
CAACAGGGGGCCACAGCAGAAGCGUUCACGUCGCAGCCCCUGUCAGAUUCUGGGGAAUCUGCGAAUUCUGCUGUAUAUCUC	0.67
CAACAGGGGGCCACAGCAGAAGCGUUCACGUCGCAGCCCCUGUCAGAUUCUGGUGAAUCUGCGAAUUCAGCUGUAUAUCUC	0.44
CAACAGGGGGCCACAGCAGAAGCGUUCACGUCGCAGCCCCUGUCAGAUUCUGGUGAAUCUGCGAAUUCCGCUGUAUAUCUC	0.46
UCACAGGGGGCCACAGCAGAAGCGUUCACGUCGCGGCCCCUGUCAGAUUCUGGUGAAUCUGCGAAUUCUGCUGUAUAUCUC	1.24
GAACAGGGGGCCACAGCAGAAGCGUUCACGUCGCAGCCCCUGUCAGAUUCUGGUGACUCUGCGAAUUCUGCUGUAUAUCUC	0.37
UCACAGGGGGCCACAGCAGAAGCGUUCACGUCGCAGCCCCUGUCAGAUUCUGGUGAAUCUGCGAAUUCUGCUGUAUAUCUC	0.91
UCACAGGGGGCCACAGCAGAAGCGUUCACGUCGCAGCCACUGUCAGAUUCUGGUGAAUCUGCGAAUUCUGCUGUAUAUCUC	0.49
GAACAGGGGGCCACAGCAGAAGCGUUCACGUCGCAGCCCCUGUCAGAUUCUGCUGAAUCUGCGAAUUCUGCUGUAUAUCUC	0.89
GAACAGGGGGCCACGGCAGAAGCGUUCACGUCGCAGCCCCUGUCAGAUUCUGGUGAAUCUGCGAAUUCUGCUGUAUAUCUC	0.84

Variant	self-cleavage
CAACAGGGGGCCACAGCAGAAGCGUUCACGUCGCAGCCCCUGUCAGAUUCUGGUGAAUCUGCGAAUUCUGCUGCAUAUCUC	1.21
CAACAGGGGGCCACAGCAGAAGCGUUCACGUCGCAGCCCCUGUCAGAUUCUGGUGAAUCUGCGAAUUCUGCUGGAUAUCUC	1.19
CAACAGGGGGCCACAGCAGAAGCGUUCACGUCGCAGCCCCUGUCAGAUUCUGGUGAAUCUGCGAAUUCUGCUGAAUAUCUC	1.21
UCACAGGGGGCCACAGCAGAAGUGUUCACGUCGCAGCCCCUGUCAGAUUCUGGUGAAUCUGCGAAUUCUGCUGUAUAUCUC	0.25
GAACAGGGGGCCACAGCAGAAGCGCUCACGUCGCAGCCCCUGUCAGAUUCUGGUGAAUCUGCGAAUUCUGCUGUAUAUCUC	0.13
GAACAGGGGGCCACAGCAGAAGCGUUCACGUCGCAGCCCCUGUCAGAUUCUGGUGAAUCUGCGAAUUCUGCUGUAUAUCAC	1.08
GAACAGGGGGCCACAGCAGAAGCGUUCACGUCGCAGCCCCAGUCAGAUUCUGGUGAAUCUGCGAAUUCUGCUGUAUAUCUC	0.3
GAACAGGGGGCCACAGCAGAAGCGUUCACGUCGCAGCCCCCGUCAGAUUCUGGUGAAUCUGCGAAUUCUGCUGUAUAUCUC	1.01
GAACAGGGGGCCACAGCAGAAGCGUUCACGUCGCAGCCCCUGUCAGAUUCUGGUGAAUCUGCGAAUUCUGCUGUAUAUCUC	1.01
GAACAGGGGGCCACAGCAGAAGCGUUCACGUCGCAGCCCCUGUCAGAUUCUGGUGAAUCUGCGAAUUCAGCUGUAUAUCUC	0.65
CAACAGGGGGCCACAGCAGAAGCGUUCACGUCGCAGCCCCUGUCAGAUUCUGGUGAAUCUGCGAACUCUGCUGUAUAUCUC	0.39
GAACAGGGGGCCACAGCAGAAGCGUUCACGUCGCAGCCCCUGUCAGAUUCUGGUGAAUCUGCGAAUUCUGCUGUAUACCUC	0.82
GAACAGGGGGCCACAGCAGAAGCGUUCACGUCGCGGCCCCUGUCAGAUUCUGGUGAAUCUGCGAAUUCUGCUGUAUAUCUC	1.25
GAACAGGGGGCCACAGCAGAAGCGUUCACGUCGCAGCCCCUGUCAGGUUCUGGUGAAUCUGCGAAUUCUGCUGUAUAUCUC	1.16
CAACAGGGGGCCACAGCAGAAGCGUUCACGUCGCAGCCCCUGUCAGAUUCUGGUGAAUCUGCGAAUUCUGCUGUAAAUCUC	0.78
CAACAGGGGGCCACAGCAGAAGCGUUCACGUCGCAGCCCCUGUCAGAUUCUGGUGAAUCUGCGAAUUCUGCUGUACAUCUC	0.8
UCACGGGGGGCCACAGCAGAAGCGUUCACGUCGCAGCCCCUGUCAGAUUCUGGUGAAUCUGCGAAUUCUGCUGUAUAUCUC	0.86
UCACAGGGGGCCACAGCAGAAGCGUUCACGUCGCAGCCCCUGUCAGAUUCUGGUGAAUCUGCGGAUUCUGCUGUAUAUCUC	0.74
UCACAGGGGGCCACAGCAGAAGCGUUCACGUCGCAGCCCCUGUCAGAUUCUGGUGAAUCUGCGUAUUCUGCUGUAUAUCUC	0.21
UCACAGGGGGCCGCAGCAGAAGCGUUCACGUCGCAGCCCCUGUCAGAUUCUGGUGAAUCUGCGAAUUCUGCUGUAUAUCUC	0.49
UCACAGGGGGCCACAGCAGAAGCGUUCGCGUCGCAGCCCCUGUCAGAUUCUGGUGAAUCUGCGAAUUCUGCUGUAUAUCUC	0.51
GAACAGGGGGCCGCAGCAGAAGCGUUCACGUCGCAGCCCCUGUCAGAUUCUGGUGAAUCUGCGAAUUCUGCUGUAUAUCUC	0.66
